In paper PMC7039627:

Biological target: extracellular domain of hCTLA-4 (Homo sapiens) (UniProt P16410)
Assay: SPR

Sequence of UniProt P16410 (P16410 36-161): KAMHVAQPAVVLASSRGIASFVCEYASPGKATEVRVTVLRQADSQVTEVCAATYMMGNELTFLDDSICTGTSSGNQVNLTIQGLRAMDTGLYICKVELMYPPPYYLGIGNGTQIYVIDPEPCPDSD

Substance Ipilimumab (antibody) has a Kd of 3.68 nM.
